The subject of data set [1] is CF patient sputum on wild type rat trachea. Kind of data set: CF sputum transport ex vivo on excised rat trachea (μOCT). On the set-up: species or system human sputum. As to conditions: sputum treated 2 hrs; ORP100S 3 mM, DTT 1.6 mM, DNase 10 or 25 μg/ml; PBS 0.97±0.17. On the procedure:
To determine the effect of ORP100S on CF sputum transportability, sputum specimens spontaneously expectorated from 4 CF patients hospitalized for pulmonary exacerbation were collected and stored at 4° C. before being divided into 200 μL aliquots and treated with ORP100S (3 mM), PBS, DTT (1.6 mM), or DNase (10 or 25 μg/ml) on the day of or day following collection. Upon treatment, sputum aliquots were placed in a 37° C. water bath for 2 hrs and then applied (3 μl per sample) for μOCT imaging to the distal end of trachea excised from adult non-CF rats. Trachea were washed 2× with 500 μl of PBS before sputum addition. Sample conditions were applied in triplicate in random order at distinct anatomic locations—2 washes using 500 μl of PBS were performed between each sample addition—and at least 3 images were collected from each region of interest. Confirmation of trachea viability was obtained by imaging with PBS upon completion of the experiment.
One-micron resolution spectral domain μOCT was used to obtain measurements of mucociliary transport (MCT) rate and ciliary beat frequency (CBF) in HBE monolayers and of MCT rate of sputum ex vivo. This first-in-kind, high-speed (40 frames per second, 512 lines per frame) microscopic reflectance imaging modality enables simultaneous anatomic imaging in cell cultures and intact tissues that readily distinguishes the properties of CF compared to normal epithelia (Liu L, Chu K K, Houser G H, Diephuis B J, Li Y, Wilsterman E J, Shastry S, Dierksen G, Birket S E, Mazur M, et al., 2013, Method for quantitative study of airway functional microanatomy using micro-optical coherence tomography, PLoS One 8(1):e54473; Tuggle K L, Birket S E, Cui X, Hong J, Warren J, Reid L, Chambers A, Ji D, Gamber K, Chu K K, et al., 2014, Characterization of defects in ion transport and tissue development in Cystic Fibrosis Transmembrane Conductance Regulator (CFTR)-knockout rats. PLoS One 9(3):e91253). In addition to MCT rate and CBF, μOCT also has the capability to assess physical characteristics of the airway surface liquid. Images were captured, and MCT rate and CBF calculated, as described in the preceding references.
The effect of ORP100S on mucus clearance using intact rat trachea, which include the complexities of the airway surface such as gland expression of a fully differentiated mucosal surface, was further evaluated. […] MCT was measured by projecting a cross-sectional line through the mucus through time, with the slope of the particle trajectories indicating velocity. […]

Data set [2] relates to pediatric patients. The settings on record: human, in vivo; cited from earlier work.

B1: DNase: recombinant human DNase I (protein, UniProt P24855 23-282, looked up)
Deoxyribonuclease-1: LKIAAFNIQTFGETKMSNATLVSYIVQILSRYDIALVQEVRDSHLTAVGKLLDNLNQDAPDTYHYVVSEPLGRNSYKERYLFVYRPDQVSAVDSYYYDDGCEPCGNDTFNREPAIVRFFSRFTEVREFAIVPLHAAPGDAVAEIDALYDVYLDVQEKWGLEDVMLMGDFNAGCSYVRPSQWSSIRLWTSPTFQWLIPDSADTTATPTHCAYDRIVVAGMLLRGAVVPDSALPFNFQAAYGLSDQLAQAISDHYPVEVMLK
On to B1, for which the “MCT rate of treated sputum” value in data set [1] was found to be 2.30±0.28 mm/min. In addition, the “pediatric patients with clinical deterioration in lung function” value in data set [2] was 6-30%.

Values taken from patent publication US20230071765A1, “COMPOSITIONS HAVING THIOREDOXIN ACTIVITY AND RELATED METHODS” (ORPRO THERAPEUTICS, INC., priority 2020, published 2023).
